Test results published in patent US8404239B2, “Anti-Notch2 NRR antibodies” (Genentech, Inc., priority 2008, dated 2013).

Assays:
[1] = test system: other three non-targeted receptors; assay: Binding to non-targeted Notch receptors (SPR, ELISA, FACS); set-up: species or system human, mouse; settings: ELISA and FACS
Procedure: Binding affinities of anti-Notch2 NRR antibodies were measured by Surface Plasmon Resonance (SRP) using a BIAcore™-3000 instrument. Anti-Notch2 NRR human IgGs were captured by mouse anti-human IgG coated on the CM5 sensor chip to achieve approximately 200 response units (RU). For kinetics measurements, two-fold serial dilutions of human and mouse Notch2 NRR (3.9 nM to 500 nM) were injected in PBT buffer (PBS with 0.05% Tween 20) at 25° C. with a flow rate of 30 μl/min. Association rates (kon) and dissociation rates (koff) were calculated using a simple one-to-one Langmuir binding model (BIAcore Evaluation Software version 3.2). The equilibrium dissociation constant (KD) was calculated as the ratio koff/kon.
Anti-Flag antibody was used to capture Flag-Tagged NRR protein from all four Notch receptors in a black walled, high binding plate (Greiner). NRR antibody and E25 control antibodies were bound to the NRR proteins and washed away with PBS. An Alkaline Phosphate conjugated anti-human (H+L) secondary antibody (Jackson ImmunoResearch) was used to detect bound anti-NRR and E25. Unbound secondary was washed away and AP was detected with PNPP substrate (Pierce). […]

[2] = test system: Notch2 signaling; assay: Co-culture Notch reporter assay, Notch2 signaling (U87MG cells + Jag1 cells); type: cell-based
Procedure: NIH-3T3 cells stably transfected with Jag1 were used to induce Notch signaling in NIH-3T3 cells stably transfected with Notch1 (except for “−Jag1”, which used untransfected NIH-3T3 cells in place of the Jag1-expressing cells). […] NIH-3T3 cells stably transfected with Jag1 were used to induce Notch signaling in U87MG cells, which express high levels of Notch2. The assay was performed as described in (A). […] The assay was performed as in (A) except that the receptor-expressing cells were generated by transient transfection of plasmids expressing the indicated Notch1 receptors.
Co-culture assay in U87MG cells, as described in FIG. 10B.
NIH-3T3 cells either stably transfected with Notch 1 or transiently transfected with plasmids containing other Notch receptors were co-transfected with a Notch-responsive TP-1 (12× CSL) Firefly luciferase reporter and a constitutively active Renilla Luciferase reporter (pRL-CMV, Promega) to control for transfection efficiency. Cells are allowed to recover from the transfection from 6 hours to overnight. Treatments of antibodies and NIH-3T3 cells stably transfected with ligand are used to stimulate the receptor cells. After 20 hours, firefly and Renilla luciferase are measured with Dual Glo Luciferase Assay system (Promega). Eight replicates were analyzed for each condition by dividing the Firefly signal by the Renilla signal to control for transfection efficiency. The mean and standard deviation were calculated and values were normalized to calculated values for co-culture stimulated with NIH-3T3 cells without ligand transfected.

[3] = test system: Notch1-NRR / Notch2 NRR chimeric proteins; assay: Epitope mapping: plate binding to Notch1-NRR/Notch2 NRR chimeric proteins fused to alkaline phosphatase; settings: domain swap
Procedure: The indicated NRR protein fragments (dark blue, Notch1 sequences; light blue, Notch2 sequences) were expressed as secreted proteins fused to alkaline phosphatase to enable rapid measurements of antibody binding in a plate-based assay. […] Antibody binding was assessed by measuring alkaline phosphatase activity that remained bound to the plate. […] (B) Structure of human Notch NRR1. NRR1 is shown as a C-alpha cartoon. The three calcium ions in the LNR motifs are shown as spheres. The position of the S2 cleavage site is marked with an arrow. (C) Superposition of NRR1 on NRR2 (chain A from pdb code 2OO4) based on structurally conserved atoms. NRR1 (shaded) and NRR2 (white) are shown as C-alpha traces. (D) Open-book view of the interface between NRR1 (left) and α-NRR1 Fab (right, border between heavy and light chains shown as a black dashed line). The extent to which the solvent accessible surface area is buried by complex formation is indicated.
Synthetic Notch1 and Notch2 NRR sequences were designed with unique restriction sites at junctions between the five domains of the NRR-LNR-A; LNR-B; LNR-C; HD-N; and HD-C—and produced by Blue Heron Technology (Bothell, Wash.). Swapping various domains between the two synthetic sequences, using the engineered restriction sites, generated chimeric NRR proteins. The chimeric clones were assembled in a modified pUC19 vector and transferred to a SEAP containing vector, pCSC.AP, for expression. AP-tagged NRR proteins were produced by transfection of 293T cells. After 72 hr culture, the conditioned media was collected, cleared by centrifugation, and tested for AP activity using the Phospha-Light System (Applied Biosystems, Bedford, Mass.). The AP activity in each sample was normalized and an ELISA was performed to test the ability of α-NRR1 or α-NRR2 to bind the chimeric NRR proteins. The ELISA was performed as follows: either α-NRR1 or α-NRR2 was captured by a plate bound α-Fc antibody in 96-well format and incubated with the conditioned media overnight. The plate was washed to remove unbound protein, and the captured protein was tested for AP activity using the Phospha-Light System.

[4] = test system: DB DLBCL cell line; assay: Growth of DB diffuse large B-cell lymphoma cell line in vitro; type: cell-based
Procedure: Diffuse large B-cell lymphoma (DLBCL) is the most common type of non-Hodgkin's lymphoma. […] (See Lee et al., Cancer Sci. 100:920-926, 2009.) However, how DLBCL cells would respond to Notch2 inhibition was not known. Therefore, we investigated the effect of anti-NRR2 on five DLBCL cell lines. The DLBCL lines listed on the right of FIG. 26 were grown in replicates for three days in wells of a 384-well plate. The cell cultures included the indicated concentrations of anti-NRR2 (referred to as “anti-Notch2” in FIGS. 26 and 27), which corresponded to three-fold serial dilutions starting at 10 μg/ml. Growth was assessed using Cell Titer Glo assays (Promega), plotted as the percentage of cell viability relative to treatment with an isotype control antibody. The data points in FIG. 26 represent average values obtained from individual wells for each cell line at the indicated antibody concentrations. […] The DB line was grown in wells of a 12-well plate, and the cultures were treated with DMSO, the gamma-secretase inhibitor DAPT, anti-gD isotype control antibody or anti-NRR2 at the indicated concentrations. Growth was assessed by counting viable cells (Vi-CELL, Beckman Coulter, Fullerton, Calif.) at days 2, 3 and 5 after inoculating and treating the cultures. Values represent the mean of measurements from three independent cultures, plus/minus the standard deviation.

B1: anti-NRR2: affinity matured form of Antibody D, phage library-derived human anti-Notch2 NRR monoclonal antibody (antibody, V domains shown)
VH: EVQLVESGGGLVQPGGSLRLSCAASGYTFSSYGMSWVRQAPGKGLEWVSYIYPYSGATYYADSVKGRFTISADTSKNTAYLQMNSLRAEDTAVYYCARHSGYYRISSAMDVWGQGTLVTVSA
VL: DIQMTQSPSSLSASVGDRVTITCRASQNIKRFLAWYQQKPGKAPKLLIYGASTRESGVPSRFSGSGSGTDFTLTISSLQPEDFATYYCQQYYRSPHTFGQGTKVEIKR
Which results are given for B1?
binding to human or mouse sequences of the other three non-targeted receptors [1]: no binding; effect on Notch2 reporter signaling ([2]; Jag1-induced, DAPT 5 μM): inhibition of Notch2 signaling; inhibition of signaling induced through Jag1, Jag2, D111 and D114 ([2]; all Notch ligands tested): inhibited signaling; binding to chimera containing only the LNR-A and HD-C subdomains from NRR2 [3]: weak but detectable binding; binding to chimera with LNR-A of NRR1 in the NRR2 backbone [3]: completely disrupted; binding to chimeras C.Hn and BC (only three subdomains from NRR2) [3]: full binding; binding to chimeras with swaps of LNR-B or LNR-C in the NRR2 backbone [3]: no effect; growth over time (viable cell counts) ([4]; days 2, 3 and 5): suppresses the growth; growth (cell viability relative to isotype control) ([4]; three days, three-fold dilutions from 10 μg/ml): strongly inhibited
